Reference: the supplement of paper PMC7877785
± gives the uncertainty stated by the source.

Assay: self-splicing fitness, log relative to wild type (ln ratio); higher = more splicing; Tetrahymena group I intron in knt gene, E. coli kanamycin selection, DiMSum; sequences stand for … in CUCUCU…GGAGGGAAAAGUUAUCAGGCAUGCACCUGGUAGCUAGUCUUUAAACCAAUAGAUUGCAUCGGUUUAAAAGGCAAGACCGUCAAAUUGCGGGAAAGGGGUCAACAGCCGUUCAGUACCAAGUCUCAGGGGAAACUUUGAGAUGGCCUUGCAAAGGGUAUGGUAAUAAGCUGACGGACAUGGUCCUAACCACGCAGCCAAGUCCUAAGUCAACAGAUCUUCUGUUGAUAUGGAUGCAGUUCACAGACUAAAUGUCGGUCGGGGAAGAUGUAUUCUUCUCAUAAGAUAUAGUCGGACCUCUCCUUAAUGGGAGCUAGCGGAUGAAGUGAUGCAACACUGGAGCCGCUGGGAACUAAUUUGUAUGCGAAAGUAUAUUGAUUAGUUUUGGAGUACUCGUGGUCG
Summary of the method: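 Fitness was computed with DiMSum as the error-weighted combination of replicate fold changes, kanamycin versus none, each normalised to wild type. The library randomised all eight intron nucleotides of the P1ex region, with the intron placed in the knt kanamycin-resistance gene on pET-22b(+) in E. coli BL21(DE3). Six replicate transformations were grown overnight at 37°C or 30°C on LB agar with or without 25 μg/mL kanamycin, plus 100 μg/mL carbenicillin, 50 μM IPTG and 0.2% rhamnose. Pooled colonies were amplicon-sequenced on an Illumina HiSeq 2500.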

Sequence	self-splicing fitness (ln) (30 °C)	self-splicing fitness (ln) (37 °C)
GCGUAGCAAUAUUACGAGGU	-2.81 ± 0.36	-2.62 ± 0.36
UUCGAGCAAUAUUACGAGAU	-3.95 ± 0.35	-2.34 ± 0.31
UGCUAGCAAUAUUACGAAAC	-2.87 ± 0.33	-2.17 ± 0.31
CCGGAGCAAUAUUACGCUAC	-2.55 ± 0.49	–
AUAAAGCAAUAUUACGUAGA	-2.36 ± 0.11	-0.832 ± 0.12
GAAAAGCAAUAUUACGGGAA	-2.07 ± 0.14	-0.425 ± 0.13
UAAGAGCAAUAUUACGAAGA	–	-1.98 ± 0.38
AAAAAGCAAUAUUACGGCCC	-0.786 ± 0.22	0.00498 ± 0.23
GUUCAGCAAUAUUACGUUUA	-1.21 ± 0.11	-0.233 ± 0.09
AUGCAGCAAUAUUACGCCGG	-1.72 ± 0.15	-0.877 ± 0.21
CGUAAGCAAUAUUACGUGUC	-1.85 ± 0.22	-3.01 ± 0.28
GCGGAGCAAUAUUACGAGUA	-3.21 ± 0.21	-1.82 ± 0.15
GAGAAGCAAUAUUACGCGCU	-2.03 ± 0.13	-1.49 ± 0.13
GAUGAGCAAUAUUACGGUCU	-3.87 ± 0.37	-3.34 ± 0.26
CGAAAGCAAUAUUACGUUCA	-0.312 ± 0.074	0.0231 ± 0.091
GCUUAGCAAUAUUACGUAGC	-3.12 ± 0.26	-1.75 ± 0.26
UCUAAGCAAUAUUACGUAAU	-3.41 ± 0.2	-1.66 ± 0.19
CCGUAGCAAUAUUACGGUGG	-2.59 ± 0.16	-1.1 ± 0.17
CUCAAGCAAUAUUACGUUGU	-3.9 ± 0.36	-2.89 ± 0.23
AUCGAGCAAUAUUACGCAUC	-2.77 ± 0.48	–
ACCGAGCAAUAUUACGCGCU	-2.81 ± 0.17	-1.19 ± 0.19
CCCUAGCAAUAUUACGACUG	-4.39 ± 0.36	-2.92 ± 0.27
GUCGAGCAAUAUUACGGACU	-3.29 ± 0.47	-1.73 ± 0.24
UACCAGCAAUAUUACGCAGG	-3.68 ± 0.21	-2.37 ± 0.27
UUAGAGCAAUAUUACGUAAU	-2.77 ± 0.31	-1.69 ± 0.36

Sequence	self-splicing fitness (ln) (30 °C)	self-splicing fitness (ln) (37 °C)
AGGAAGCAAUAUUACGGAUU	-2.3 ± 0.12	-1.55 ± 0.14
UUUUAGCAAUAUUACGAAGA	-1.85 ± 0.31	-1.21 ± 0.22
AGGGAGCAAUAUUACGAGGC	-2.51 ± 0.35	-2.59 ± 0.44
GCGCAGCAAUAUUACGAUAA	-1.85 ± 0.11	-0.604 ± 0.14
CACCAGCAAUAUUACGUGUC	-3.8 ± 0.09	-3.28 ± 0.11
UUAGAGCAAUAUUACGUGGG	-3.41 ± 0.22	-1.92 ± 0.17
ACUCAGCAAUAUUACGCGGC	-3.2 ± 0.25	–
CAGCAGCAAUAUUACGAAUA	-2.35 ± 0.13	-1.9 ± 0.12
AUCCAGCAAUAUUACGUUCG	-2.47 ± 0.1	-0.92 ± 0.12
AAGGAGCAAUAUUACGUAUC	–	-2.8 ± 0.44
CCAUAGCAAUAUUACGGAAC	-3.26 ± 0.24	-1.55 ± 0.27
UGUAAGCAAUAUUACGACGG	-1.46 ± 0.11	-0.11 ± 0.12
AUCCAGCAAUAUUACGCUAU	-1.51 ± 0.09	-1.26 ± 0.1
ACCAAGCAAUAUUACGCCUC	-2.34 ± 0.22	-0.371 ± 0.18
UCUCAGCAAUAUUACGACCA	-0.757 ± 0.13	-0.615 ± 0.14
CAAUAGCAAUAUUACGCGCG	-0.577 ± 0.094	-0.206 ± 0.1
CACUAGCAAUAUUACGCCGC	–	-2.58 ± 0.5
UCGCAGCAAUAUUACGGAAC	-1.51 ± 0.32	-2.53 ± 0.41
AUAUAGCAAUAUUACGACCC	-1.24 ± 0.28	–
UUUAAGCAAUAUUACGAUCA	-0.491 ± 0.1	0.00531 ± 0.11
AGUCAGCAAUAUUACGCUGG	-3.87 ± 0.23	-2.71 ± 0.23
UAAUAGCAAUAUUACGCGAU	-3.2 ± 0.28	-1.86 ± 0.24
AGCAAGCAAUAUUACGUUUG	-4.51 ± 0.22	-2.76 ± 0.18
UAUAAGCAAUAUUACGGGUU	-3.04 ± 0.16	-3.53 ± 0.23
AAUUAGCAAUAUUACGUGGA	-3.12 ± 0.2	-2.27 ± 0.17

Sequence	self-splicing fitness (ln) (30 °C)	self-splicing fitness (ln) (37 °C)
UAGAAGCAAUAUUACGAGAG	-3.63 ± 0.28	-1.46 ± 0.34
UCCAAGCAAUAUUACGUGUC	-3.42 ± 0.12	-2.94 ± 0.12
AAUAAGCAAUAUUACGAAGU	-3.44 ± 0.18	-1.94 ± 0.17
UUUCAGCAAUAUUACGACUU	-0.723 ± 0.077	-0.00938 ± 0.099
AGACAGCAAUAUUACGACCG	-1.4 ± 0.12	-0.429 ± 0.14
GAGCAGCAAUAUUACGUUGU	-3.37 ± 0.14	-2.16 ± 0.15
AGAUAGCAAUAUUACGGUUC	-1.77 ± 0.12	-0.791 ± 0.19
UAAAAGCAAUAUUACGAACG	0.282 ± 0.1	0.847 ± 0.12
UUCGAGCAAUAUUACGACUG	-3.35 ± 0.34	-1.48 ± 0.26
UACAAGCAAUAUUACGAGUA	-2.13 ± 0.08	-0.707 ± 0.078
ACCAAGCAAUAUUACGCCCU	-0.139 ± 0.091	0.663 ± 0.14
CGCGAGCAAUAUUACGCGUG	-2.29 ± 0.14	-2.67 ± 0.15
UCUCAGCAAUAUUACGUCUU	-3.25 ± 0.17	-2.83 ± 0.15
ACUUAGCAAUAUUACGCGGA	-2.36 ± 0.11	-0.613 ± 0.088
GUAGAGCAAUAUUACGCGGG	-2.65 ± 0.15	-1.43 ± 0.17
GAGAAGCAAUAUUACGUGAA	-1 ± 0.1	-1.23 ± 0.17
AUCAAGCAAUAUUACGAACC	-1.05 ± 0.18	-0.734 ± 0.25
CGUCAGCAAUAUUACGAGGU	-3.81 ± 0.47	-3.03 ± 0.35
AGAGAGCAAUAUUACGUGAU	-3.94 ± 0.18	-2.1 ± 0.23
CUCGAGCAAUAUUACGCAUU	-3.59 ± 0.3	–
AAGGAGCAAUAUUACGUCGG	-3.13 ± 0.19	-2.74 ± 0.33
CUCCAGCAAUAUUACGAAGU	-3.59 ± 0.16	-2.98 ± 0.26
ACCAAGCAAUAUUACGGUUU	-3.14 ± 0.11	-2.08 ± 0.1
CCCGAGCAAUAUUACGCUAG	-3.59 ± 0.37	-1.73 ± 0.36
UUGUAGCAAUAUUACGCUCG	-0.29 ± 0.14	-0.456 ± 0.25

Sequence	self-splicing fitness (ln) (30 °C)	self-splicing fitness (ln) (37 °C)
GAAGAGCAAUAUUACGACUC	-0.32 ± 0.095	-0.113 ± 0.11
CAAAAGCAAUAUUACGACUA	-1.52 ± 0.13	-0.952 ± 0.12
ACGCAGCAAUAUUACGUCUC	-3.88 ± 0.13	-0.606 ± 0.084
GCUUAGCAAUAUUACGUUUC	-1.2 ± 0.099	-0.547 ± 0.11
CCUUAGCAAUAUUACGCUGA	-3.23 ± 0.47	–
CACCAGCAAUAUUACGAAAC	–	-2.12 ± 0.31
CCAAAGCAAUAUUACGGUUC	-2.91 ± 0.12	-2.34 ± 0.2
UUAUAGCAAUAUUACGUUGC	-3.27 ± 0.36	-3.07 ± 0.4
CAAGAGCAAUAUUACGAAGA	-1.75 ± 0.35	-3.14 ± 0.43
UUUAAGCAAUAUUACGAUAA	-0.773 ± 0.1	0.228 ± 0.13
AGUGAGCAAUAUUACGAAUG	-3.4 ± 0.36	-1.58 ± 0.3
GGACAGCAAUAUUACGCCUC	-0.953 ± 0.32	-0.751 ± 0.3
CAAAAGCAAUAUUACGUACU	-2.74 ± 0.11	-0.995 ± 0.09
GUCAAGCAAUAUUACGUAUU	-2.98 ± 0.12	-1.84 ± 0.1
UGUUAGCAAUAUUACGUCAA	-1.27 ± 0.12	-1.2 ± 0.11
AUAAAGCAAUAUUACGACUA	0.277 ± 0.083	0.129 ± 0.1
AUGGAGCAAUAUUACGGAAC	–	-1.21 ± 0.42
GAUGAGCAAUAUUACGAUGU	-2.63 ± 0.25	-2.15 ± 0.35
UCUUAGCAAUAUUACGUGCU	-3.12 ± 0.38	-2.37 ± 0.48
GGCAAGCAAUAUUACGCCCC	–	-1.27 ± 0.35
GGUGAGCAAUAUUACGUGUA	-2.8 ± 0.25	-3.22 ± 0.3
GCACAGCAAUAUUACGGGGG	-1.97 ± 0.088	-0.472 ± 0.08
AGGAAGCAAUAUUACGGAAG	-2.98 ± 0.25	-2.28 ± 0.39
UGGUAGCAAUAUUACGAGUG	-1.17 ± 0.13	-0.313 ± 0.16
